# Test system: Bacillus subtilis
# Test: cleaved RNA product abundance (RNA/gDNA barcode ratio) relative to median wild-type variant (ratio to wild type); higher = more accumulation of the downstream cleavage product
# Settings: cleavage site: cggR-gapA (positions -7 to +36 mutated)
# Method in brief: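 Cleaved product abundance is expressed as the RNA:gDNA barcode ratio per construct, scaled to the median construct carrying the unmutated site. The constructs were barcoded, mutagenized RNase Y cleavage-site windows in truncated aprE or tetM reporter mRNAs integrated into the B. subtilis chromosome. Cultures grew in LB at 37°C from OD600 0.0003 to 0.3 before cleaved RNA was gel-selected and barcode-sequenced.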
# [1] = experiment (reporter, strain, medium): exp 4a: truncated aprE reporter, strain BJT201 with 2% xylose (RNase J1 expressed)
# [2] = experiment (reporter, strain, medium): exp 2b: truncated aprE reporter, strain BJT200
Sequence,cleaved RNA product abundance [1],cleaved RNA product abundance [2],"cleaved RNA product abundance (experiment (reporter, strain, medium): exp 6: tetM reporter, strain 168)"
ACAGACGAAGGAGCCGCAAAGAAGTTATTAAGAGATGAATAATCCCTCAATATAAATATATCTCACTTATTTAAA,0.193,–,–
ACAGACGAAGGAGCCGCAAAGAAGTTATTAAGAGATGAATAATCCCTCAATATAAATATCTCTCACTATTTAAAG,0.151,–,–
ACAGACGAAGGAGCCGCAAAGAAGTTATTAAGAGATGAATAATCCCTCAATATAAATATCTCTCACTTATTTAAA,0.147,0.111,0.135
ACAGACGAAGGAGCCGCAAAGAAGTTATTAAGAGATGAATAATCCCTCAATATAAATGTCTCTCACTTATTTAAA,0.0916,–,–
ACAGACGAAGGAGCCGCAAAGAAGTTATTAAGAGATGAATAATCCCTCAATATAAATTTCTCTCACTTATTTAAA,0.164,–,–
ACAGACGAAGGAGCCGCAAAGAAGTTATTAAGAGATGAATAATCCCTCAATATAACTATCTCTCACTTATTTAAA,0.0935,–,–
ACAGACGAAGGAGCCGCAAAGAAGTTATTAAGAGATGAATAATCCCTCAATATAATTATCTCTCACTTATTTAAA,0.118,–,–
ACAGACGAAGGAGCCGCAAAGAAGTTATTAAGAGATGAATAATCCCTCAATATACATATCTCTCACTTATTTAAA,0.136,0.102,–
ACAGACGAAGGAGCCGCAAAGAAGTTATTAAGAGATGAATAATCCCTCAATATAGATATCTCTCACTTATTTAAA,0.147,–,–
ACAGACGAAGGAGCCGCAAAGAAGTTATTAAGAGATGAATAATCCCTCAATATATATATCTCTCACTTATTTAAA,0.14,0.129,–
ACAGACGAAGGAGCCGCAAAGAAGTTATTAAGAGATGAATAATCCCTCAATCTAAATATCTCTCACTTATTTAAA,0.0377,–,–
ACAGACGAAGGAGCCGCAAAGAAGTTATTAAGAGATGAATAATCCCTCAATGTAAATATCTCTCACTTATTTAAA,0.0609,0.0969,–
ACAGACGAAGGAGCCGCAAAGAAGTTATTAAGAGATGAATAATCCCTCAATTTAAATATCTCTCACTTATTTAAA,0.0573,0.0971,–
ACAGACGAAGGAGCCGCAAAGAAGTTATTAAGAGATGAATAATCCCTCACTATAAATATCTCTCACTTATTTAAA,0.131,–,–
ACAGACGAAGGAGCCGCAAAGAAGTTATTAAGAGATGAATAATCCCTCATTATAAATATCTCTCACTTATTTAAA,0.177,–,–
ACAGACGAAGGAGCCGCAAAGAAGTTATTAAGAGATGAATAATCCCTCCATATAAATATCTCTCACTTATTTAAA,–,0.0792,–
ACAGACGAAGGAGCCGCAAAGAAGTTATTAAGAGATGAATAATCCCTCGATATAAATATCTCTCACTTATTTAAA,0.0848,–,–
ACAGACGAAGGAGCCGCAAAGAAGTTATTAAGAGATGAATAATCCCTCTATATAAATATCTCTCACTTATTTAAA,0.118,–,–
ACAGACGAAGGAGCCGCAAAGAAGTTATTAAGAGATGAATAATCCCTGAATATAAATATCTCTCACTTATTTAAA,0.0805,–,–
ACAGACGAAGGAGCCGCAAAGAAGTTATTAAGAGATGAATAATCCCTTAATATAAATATCTCTCACTTATTTAAA,0.431,0.727,–
ACAGACGAAGGAGCCGCAAAGAAGTTATTAAGAGATGAATAATCCGTCAATATAAATATCTCTCACTTATTTAAA,0.0917,0.0978,–
ACAGACGAAGGAGCCGCAAAGAAGTTATTAAGAGATGAATAATCCTTCAATATAAATATCTCTCACTTATTTAAA,0.211,0.105,–
ACAGACGAAGGAGCCGCAAAGAAGTTATTAAGAGATGAATAATCGCTCAATATAAATATCTCTCACTTATTTAAA,0.0997,–,–
